Data on 41 sequences can be found in the nanobody polyreactivity screen of Harvey et al. (2022).

The series is described as follows: yeast display, Sf9 membrane polyspecificity reagent, FACS + sequencing; frameworks hold sequencing errors. The gist of the method:
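After 36–48 hours of galactose induction, yeast (Saccharomyces cerevisiae BJ5465) displaying a synthetic nanobody library were stained at 4 °C for 1 hour with 10% biotinylated, detergent-solubilized Sf9 membrane reagent. Streptavidin microbeads enriched the stained cells before FACS sorting into low and high (top ~1%) gates on anti-HA and streptavidin fluorescence. Each clone's polyreactivity label reflects its gate of origin.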
As for “QVQLVESGGGLVQAGGSLRLSCAASGSIFKKYAMGWYRQSPGKERELVAAISSTGGSTKYADSVKGRFTISRDNAKNTVYLQMNSLKPEDTAVYYCAVRYKWPYDYWGQGTQVTVSS”, the “polyreactivity (PSR sort gate)” value is reported as “high polyreactivity”.

Take “QVQLVESGGGLVQAGGSLRLSCAASGFTFVYYAMGWYRQEPGKERELVAAISRSGGSTYYADSVKGRFTISRDNAKNTVYLQMNSLKPEDTEVYYCAAVTYANYYYDAYYYWGQGTQVTVSS”: the “polyreactivity (PSR sort gate)” value was “high polyreactivity”.

In the case of “QVKIVESGGGLVQAGGSLRLSCAASGGIFNWYAMGWYRPAPGKERELVAAITQSGGSTYYADSVKGRFTISRDNAKNTEYLQMNSLKPEDTAVYYCNKDQEKFWTAFNTIGRAREYDYWGQGTQVTVSS”, the “polyreactivity (PSR sort gate)” value is given as “low polyreactivity”.

For the sequence “QVQLVESGGGLVQAGGSLRLSCAASGSTWWYDMGWSRQAPGKERELVASISSGDSTNYADSVKGRFTISRDNAKNTVYLQMNSLKPEDTAVYYCAADKNSRPAGKGSTGYGYDYWGQGTQVNVSS”, the “polyreactivity (PSR sort gate)” value is recorded as “low polyreactivity”.

For “QDQLVESGGGLVQEGGSLRLSCAASGRTFKHYVMGWYRQAPGKERELVATICGGGGTYYADSVKGRFTISRDNAKNSVYLQMISLKPEDTAVYYCAARYPRGSRTWSFDSNKQRDYWGQGTQVTVSS”, the “polyreactivity (PSR sort gate)” value is recorded as “low polyreactivity”.

For “QVQLVESGGGLVQAGGSLRLSCAASGSIFWSNAMGWYRQAPGKERELVAASSSGGSTYADSVKGRFTISRDTAKNTVYLQMNSLKPEDNAVYDCNARDYSVGRNDYWGQGTQVTVSS”, the “polyreactivity (PSR sort gate)” value is “low polyreactivity”.

Take “QVQLVESGGGLVQAGGSLRLSCAASGIIFAYYAMGWYRQGPGKERELVASITNTGSTYYADSVKGRFTISRDNSKNTVYLQMNSLKPEDTAVYYCNAVLSSNTKWRYPGDYWGQGTQVTVSS”: the “polyreactivity (PSR sort gate)” value was “low polyreactivity”.

For the sequence “QVQLVESGGGLVQAGGSLRLSCAASGFTFTYYAMGWYRQAPGKERELVAAISSSGGRTYYADSVKGRFTISRDNAKNTVYLQMNSLKPEDTAVYYCAARSVSATPDFHYWGQGTQVTVSS”, the “polyreactivity (PSR sort gate)” value is listed as “high polyreactivity”.

As for “QVQLVETGGGLVQAGGSLRLSCAASGFTFIDYTMGWYRQAPGKERELVARITDTGSTNYEDSVKGRFTISRDT”, the “polyreactivity (PSR sort gate)” value is “low polyreactivity”.

With “QVQLVESGGGLVQAGGSLRLSCAASGSIFDDYAMGWYRQAPGKERELVAAITSGGSTYYADSVKGRFTISRDNAKKTVYLLMYSLKPEDTAVYFRATRYHWSSSFAPVGAYGYWGQGTQVTVSS”, the “polyreactivity (PSR sort gate)” value is “low polyreactivity”.

Regarding “QVQLVESGGGLVQAGGSLRLSCAASGSTFSRYAMGWYRQAPGKERELVAAISWSGASTYYADSVKGRFTISRDNAKNTVYLQMNRLKPEDTSVYYCAKVARQNWFRYYYDYWGQGTQVTVSS”, the “polyreactivity (PSR sort gate)” value is on record as “high polyreactivity”.

Regarding “QVQLVESGGGLVQAGGSLRLSCAASGSTYHYAMGWYRQAPGKERELVASITWRGDTTYYADSVKGRFTISRDNAKNTVYLQMNSLKPEDTAVYYCAARKFFRQGGKRYDYWGQGTQVTVSS”, the “polyreactivity (PSR sort gate)” value was “high polyreactivity”.

Regarding “QVQLVESGGGLVQAGGSLRLSCAASGFIFDFYAMGWYRQAPGKERELVATINSSGTTNYADSVKGRFTISRDNAKNTVYLQMNSLKPEDTAVYYCATVEYLGHYTYDYWGQGTQVTVSS”, the “polyreactivity (PSR sort gate)” value is recorded as “low polyreactivity”.

In the case of “QVQLVESGGGLVQAGGSLRLSCAASGGNFLAYAMGWYRQAPGKERELVAAITRRGTRTYYADSVKGRFTISRDNAKNTVYLQMNSLKPEDTAVYYCAADYYPASAGFDYWGQGTQVTVSS”, the “polyreactivity (PSR sort gate)” value is given as “high polyreactivity”.

As to “QVQLVESGGGLVQAGGSLRLSCAASGRILRSYAMGWYRPAPGKERELVAAIRWRGGSTYYADSVKGRFTISRDNAKNTVYLQMNSLKPEDTAVYYCAARSYYRQSAGDYWGQGTQVTVSS”, the “polyreactivity (PSR sort gate)” value is on record as “high polyreactivity”.

For the sequence “QVQLVESGRGLVQAGGSLRLSCAASGRTFHYNVMGWYRQAPGKERELVAAITNTGGSTYYADSVKGRFTISRDNAKNTVYLQMNSLKPEDTAVYYCAAVIWGRRYGAYPYEYWGQGTQVTVSS”, the “polyreactivity (PSR sort gate)” value is “low polyreactivity”.

Regarding “QVQLVESGGGLVQAGGSLRLSCAASGSIFYNYAMGWYRQAPGKERELVATITRSDGSTYYADSVKGRFTISRENAKNTVYLQMNSLKPEDTAVYYCAADSGSTSEYEYWGQGTQGTVSS”, the “polyreactivity (PSR sort gate)” value is reported as “low polyreactivity”.

For the sequence “QVQLVESGGGLVQAGGSLRLSCAASGRTFDKYAMGWYRQAPGKERELVAAISGSGGRTYYADSVKGRFTISRDNETNTVYLQMNSLKPEDTAVYYCAADTRSYTYYYWGQGTQVTVSS”, the “polyreactivity (PSR sort gate)” value is “high polyreactivity”.

As to “QVQLVESGGGLVQAGGSLRLSCAASGRTLYRYAMGWYRQAPGKERELVAAIRSGGRTNYADSVKGRFTISRDNAKNTVYLLMNSLKPEDTAVYYCAARTLRYPSTYDYWGQGTQVSVSS”, the “polyreactivity (PSR sort gate)” value is given as “high polyreactivity”.

On to “QVQLVESGGGLVQAGGSLRLSCAASGRIFRYYAMGWYRQAPGKERELVAAINSGGSTKYADSVKGRFTISRDNAKNTVYLQMNSLTPEDTAVYYCNKDHAFSRYWYGGFDYWGQGTQVTVSS”, for which the “polyreactivity (PSR sort gate)” value is listed as “high polyreactivity”.

With “QVHLVESGGGLVQAGGSLRLSCAASGSISLNAMGWYTQAPGKERELDAGISNDDGTNYADSVKGRFTISRDNAKNPVYLQMNSLKPEDTAVYYCNAERDFVEDYWTYLRYDYWGQGTQVTVSS”, the “polyreactivity (PSR sort gate)” value is given as “low polyreactivity”.

“QVQLVESGGGLVQAGGSLRLSCAAAGSIFSGYAMGWSRQAPGKERELVAAISGSGGSTFYADSVKGRFTISRDNAKKTVYLQMNSLKPEDTAVYYCAARRIAPYARYDYWGQGTQVTVSS”: the “polyreactivity (PSR sort gate)” value is listed as “low polyreactivity”.

For “QVQLVESGGGLVQAGGSLRLSCAASGFTFNNNAMGWYRQAPGKERELVAAISSSGGNTYYADSVKGRFTISRDNAKNTVYLQMNSLKPEDTAVYYCNAGKRQRGEYWGQGTQVTVSS”, the “polyreactivity (PSR sort gate)” value was “high polyreactivity”.

Take “QVQLVESVGGLDQAGGSLRLSCAASGYTFSLNAMGWYRQAPGKEREFVATIRSSGARTSYADSVKGRFTISRDNAKNTVYLQMNSLKPEDTAVYYCAARYYNSYRYAMGYWGQGTQVTVSS”: the “polyreactivity (PSR sort gate)” value is “high polyreactivity”.

For the sequence “QVQLVESGGGLVQAGGSLRLSCAASGYIFIGYAMGWYRQAPGKERELVATITSGGSTNYADSVKGRFTISRDNAKNTVYLQLHSLNPEDTAVDYCAAGRGRYFYSWRYLYAIFDYWGQGTQVTVSS”, the “polyreactivity (PSR sort gate)” value was “low polyreactivity”.

Take “QVQLVESGGGLVQAGGSLRLSCAASVSTFSGYAMGWYRQAPGKERELVAAISSSGGGTYYADSVKGRFTISRDNAKNTVYLQMNSLKPEDTAVFYCAAYKYFLGFVWYDYWGQGTQVTVSS”: the “polyreactivity (PSR sort gate)” value is given as “high polyreactivity”.

“QVQLVESGGGLVQAGGSLRLSCAASGSTFPFYAMGWYRQAPGKERELVAAIRYTGNTYYADSVKGRFTISRDNAKNTVYLQMNSLKPEDTAVYYCAADADYWAYGYWGQGTQVTVSS”: the “polyreactivity (PSR sort gate)” value was “low polyreactivity”.

In the case of “QVQLVESGGGLVQAGGSLRLSCAASGRTFFEYAMGWYRQAPGKEMDLVAIITNGATTNYADSVKGRFTISRDNAKNTVYLQMNSLKPEDTAVYYCAVAKWQPRRRKYYYWGQGTQVTVSS”, the “polyreactivity (PSR sort gate)” value is recorded as “high polyreactivity”.

For “QVQLVESGGGLVQAGGSLRLSCAASGSIFQFYAMGWYRQAPGKERELVAVITTSGVSTYYADSVKGRFTISRDNAKNTVYLQMNSLKPEDTAVYYCAADDYYLAGDYWGQGTQVTVSS”, the “polyreactivity (PSR sort gate)” value is reported as “low polyreactivity”.

As to “QLQLVESGGGLVQAGGSLRLSCAASGSTYHINAMGWYRQAPGKERELVADINWSGGSTYYADSVKGRFTISRDNAKNTVYLQMNSLKPEDTAVYYCAADVGVFTYSPYDAGEHDYWGQGTQVTVSS”, the “polyreactivity (PSR sort gate)” value is “low polyreactivity”.

In the case of “QVQLVESGGGLVQAGGSLRLSCAASGRIFEIYAMGWYRQAPGTERELVAPISWRGVSTYYADSVKGRFTISRDNAKNTVYVQMNSLKAEDTAVYYCGPELGWGGFYKDGDASQFDYWGQGTQVTVSS”, the “polyreactivity (PSR sort gate)” value was “low polyreactivity”.

In the case of “QVQLVESGGGLVQAGGSLRLSCDASGRTFYFYVMGWYRQAPGKERELVARISWSGGSTYYADSVKGRFTISRDNAKNTVYLQMNSLKPEDTAVYYCARQYKYPSSGEYDSWGQGTQVTVSS”, the “polyreactivity (PSR sort gate)” value was “low polyreactivity”.

Turning to “QVQLVESGGGLVQAGGSLRLSCAASGYTFAVYAMGWYRQAPGKERELVAAISSDGSTNYADSVKGRFTISRDNAKNTVYFQMNSLKPEDTSVYYCAKVYKDLAGPFYDYWGQGTQVTVSS”, the “polyreactivity (PSR sort gate)” value is recorded as “low polyreactivity”.

Regarding “QVQRVESGGGLVQAGGRLRLSCAASGRIFIYYAMGWYRQAPGKERELVAAISSSGASTYYADSVKGRFTISRDNAKNTVYLQMISLKPEDTAVYYCAALYYRGGAFPLDYWGQGTQVTVSS”, the “polyreactivity (PSR sort gate)” value is “low polyreactivity”.

Regarding “QVQLVESGGGLVQAGGSLRLSCAASGSIFGYYAMGWSRQAPGKERELVAAISASGGSTYYADSVKGRFTISRDNAKNTVYLQMNSLKPEDTAVYYCAKVDWEQGFWVEYDHYDYWGQGTQVTVSS”, the “polyreactivity (PSR sort gate)” value was “high polyreactivity”.

“QVQLVESGGGLVQAGGSLRLSCAASGRIFRYYSMGWYRQAPGKERELVAAISGGGSTYYADSVKGRFTISRDNAKNTVYLQMNSLKPEDTAVYYCAALRSSQSKGDYWGQGTQVTVSS”: the “polyreactivity (PSR sort gate)” value is “high polyreactivity”.

Consider “QVKLVESGGGLVQAGGSLRLSCAASGIIFYSYAIGGYRPAPGTERELVAAISSTGSTYYADSVKGRFTISRDNAKNTVYLQMNSLKPEDTAVYYCAATFYPYQVHHYYYWGQGTQVTVSS”, for which the “polyreactivity (PSR sort gate)” value was “low polyreactivity”.

With “QVQLVESGGGLVQAGGSLRLSCAASGRIFTVYAMGWYRQAPGKERELVAAISGRGGRTYYADSVKGRFTISRDNAKNTVYLQMNSLKPEDTAVYYCNADTLTLTRPDGDIHTVWMDYWGQGTQVTVSS”, the “polyreactivity (PSR sort gate)” value is “low polyreactivity”.

“QVQLVESGGGLVQAGGSLRLSCAASGSTFDYNAMGWYRPAPGKERELVAVISSGTRTYYADSVKGRFTISRDNAKNTVYLQMNSLKPEDTAVYFCNKRFYPEHYYWGQGTLVTVSS”: the “polyreactivity (PSR sort gate)” value is “high polyreactivity”.

As to “QVQLVESGGGLVQAGGSLRLSCAASGNIFSYNAMGWYRQAPGKEREFVAAITFSSDRTYYADSVKGRFTISRDNAKNTVYLQMNSLKPEDTAVYYCAADTRYINYKRYYYWGQGTQVTVSS”, the “polyreactivity (PSR sort gate)” value is given as “high polyreactivity”.

In the case of “QVQLVESGGGLVQAGGSLRLSCAASGFTIERNAMGWYRQAPGKERELVATISQSGTNTYYADSVKGRFTISRDNAKNTVYLQMNSLKPEETAVYYCNARDIFYRYDYWGQGTLVTVSS”, the “polyreactivity (PSR sort gate)” value is reported as “low polyreactivity”.
